Test results published in patent publication US8932880B2, “Method for the direct measure of molecular interactions by detection of light reflected from multilayered functionalized dielectrics” (ProXentia s.r.l., priority 2009, dated 2015).

Biological target: T1, Avidin (Gallus gallus, UniProt P02701)
T1 construct: purchased Sigma-Aldrich A9275
Assay: Reflected light intensity from an antireflective SiO2-coated prism, He-Ne laser and photodiode (Example 2): binding to adsorbed Avidin
Details: 632.8 nm laser; flow 10 microliters/minute; phosphate buffer pH 7.4 + 150 millimolar NaCl; BSA 0.4 micromolar, BSA-biotin 0.5 micromolar
Description: A layer of silicon oxide (SiO2) was deposed by sputtering on one side of a glass prism, as described in Example 1. The prism is placed in a flow cell so that the coated surface is in contact with the aqueous solution. A light beam from a 5 milliwatts He—Ne laser is sent to the interface between the aqueous solution and the prism and the reflected light is detected by a photodiode that converts the light intensity in an electrical signal. Through the cell is promoted a flow of 10 microliters/minute of an aqueous solution containing sodium phosphate buffer pH 7.4+150 millimolar NaCl (hereafter called “phosphate buffer”) in the following order:
b) protein Avidin (marketed by Sigma-Aldrich, prod. No. A9275) at a concentration of 3 micromolar;
d) protein Bovine Serum Albumin, BSA (marketed by Sigma-Aldrich, prod. No. A6003) at a concentration of 0.4 micromolar;
f) protein BSA conjugated to biotin (marketed by Sigma-Aldrich, prod. No. A8549) at a concentration of 0.5 micromolar;
In FIG. 5 the measured reflected intensity is reported as a function of time. The value of the reflected light intensity measured before the step a) corresponds to a reflectivity of 3.2·10^−6. […] Unlike in Example 1, in this case the adhesion molecules on the surface causes an increase in the intensity of reflected light. […]

T1 sequence (P02701 25-152): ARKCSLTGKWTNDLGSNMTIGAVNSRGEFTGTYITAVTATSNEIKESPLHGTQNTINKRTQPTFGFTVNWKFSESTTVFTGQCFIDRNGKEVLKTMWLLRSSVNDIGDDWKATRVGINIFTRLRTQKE

Substance: Bovine Serum Albumin [BSA protein]
- variation of reflected intensity on flowing the solution over adsorbed Avidin: no further variation is observed
